From patent US20220144956A1 (published 2022)

Each binder was assayed against human TGFßRII (antigen of the Octet experiments) (human, UniProt P37173 23-166) (assay: BLI (Octet)).
Sequence of human TGFßRII (antigen of the Octet experiments) (P37173 23-166): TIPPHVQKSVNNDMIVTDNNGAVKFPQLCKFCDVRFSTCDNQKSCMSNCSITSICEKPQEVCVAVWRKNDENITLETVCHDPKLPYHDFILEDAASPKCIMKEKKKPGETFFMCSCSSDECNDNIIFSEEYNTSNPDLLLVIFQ

| Binder | Kd [nM] |
| --- | --- |
| H1.40 L1 XENP34496 (antibody, V domains shown) VH: QLQVQESGPGLVKPSETLSLTCTVSGGSISNSYFSWGWIRQPPGKGLEWVGSFYYGEKTYYNPSLKSRATISIDTSKSQFSLKLSSVTAADTAVYYCPRGPTMIRGVIDSWGQGTLVTVSS VL: EIVLTQSPATLSLSPGERATLSCRASQSVRSYLAWYQQKPGQAPRLLIYDASNRATGIPARFSGSGSGTDFTLTISSLEPEDFAVYYCQQRSNWPPTFGQGTKVEIK | 0.338 |
| H1.65 L1 XENP34521 (antibody, V domains shown) VH: QLQVQESGPGLVKPSETLSLTCTVSGGSISNSYFSWGWIRQPPGKGLEWIGSFYYGEKTSYNPSLKSRATISIDTSKSQFSLKLSSVTAADTAVYYCPRGPTMIRGVIDSWGQGTLVTVSS VL: EIVLTQSPATLSLSPGERATLSCRASQSVRSYLAWYQQKPGQAPRLLIYDASNRATGIPARFSGSGSGTDFTLTISSLEPEDFAVYYCQQRSNWPPTFGQGTKVEIK | 15.1 |
| H1.62 L1 XENP34518 (antibody, V domains shown) VH: QLQVQESGPGLVKPSETLSLTCTVSGGSISNSYFSWGWIRQPPGKGLEWIGSFYYGEKTFYNPSLKSRATISIDTSKSQFSLKLSSVTAADTAVYYCPRGPTMIRGVIDSWGQGTLVTVSS VL: EIVLTQSPATLSLSPGERATLSCRASQSVRSYLAWYQQKPGQAPRLLIYDASNRATGIPARFSGSGSGTDFTLTISSLEPEDFAVYYCQQRSNWPPTFGQGTKVEIK | 1.35 |
| H1.51 L1 XENP34507 (antibody, V domains shown) VH: QLQVQESGPGLVKPSETLSLTCTVSGGSISNSYFSWGWIRQPPGKGLEWIGSFNYGEKTYYNPSLKSRATISIDTSKSQFSLKLSSVTAADTAVYYCPRGPTMIRGVIDSWGQGTLVTVSS VL: EIVLTQSPATLSLSPGERATLSCRASQSVRSYLAWYQQKPGQAPRLLIYDASNRATGIPARFSGSGSGTDFTLTISSLEPEDFAVYYCQQRSNWPPTFGQGTKVEIK | 35.6 |
| H1.72 L1 XENP34528 (antibody, V domains shown) VH: QLQVQESGPGLVKPSETLSLTCTVSGGSISNSYFSWGWIRQPPGKGLEWIGSFYYGEKTYYNPSLKSRVTISIDTSKSQFSLKLSSVTAADTAVYYCPRGPTMIRGVIDSWGQGTLVTVSS VL: EIVLTQSPATLSLSPGERATLSCRASQSVRSYLAWYQQKPGQAPRLLIYDASNRATGIPARFSGSGSGTDFTLTISSLEPEDFAVYYCQQRSNWPPTFGQGTKVEIK | 0.42 |
| H1.64 L1 XENP34520 (antibody, V domains shown) VH: QLQVQESGPGLVKPSETLSLTCTVSGGSISNSYFSWGWIRQPPGKGLEWIGSFYYGEKTNYNPSLKSRATISIDTSKSQFSLKLSSVTAADTAVYYCPRGPTMIRGVIDSWGQGTLVTVSS VL: EIVLTQSPATLSLSPGERATLSCRASQSVRSYLAWYQQKPGQAPRLLIYDASNRATGIPARFSGSGSGTDFTLTISSLEPEDFAVYYCQQRSNWPPTFGQGTKVEIK | 5.37 |
| H1.74 L1 XENP34530 (antibody, V domains shown) VH: QLQVQESGPGLVKPSETLSLTCTVSGGSISNSYFSWGWIRQPPGKGLEWIGSFYYGEKTYYNPSLKSRATISIDTSKNQFSLKLSSVTAADTAVYYCPRGPTMIRGVIDSWGQGTLVTVSS VL: EIVLTQSPATLSLSPGERATLSCRASQSVRSYLAWYQQKPGQAPRLLIYDASNRATGIPARFSGSGSGTDFTLTISSLEPEDFAVYYCQQRSNWPPTFGQGTKVEIK | 0.771 |
| H1.56 L1 XENP34512 (antibody, V domains shown) VH: QLQVQESGPGLVKPSETLSLTCTVSGGSISNSYFSWGWIRQPPGKGLEWIGSFYYGGKTYYNPSLKSRATISIDTSKSQFSLKLSSVTAADTAVYYCPRGPTMIRGVIDSWGQGTLVTVSS VL: EIVLTQSPATLSLSPGERATLSCRASQSVRSYLAWYQQKPGQAPRLLIYDASNRATGIPARFSGSGSGTDFTLTISSLEPEDFAVYYCQQRSNWPPTFGQGTKVEIK | 0.203 |
| H1.67 L1 XENP34523 (antibody, V domains shown) VH: QLQVQESGPGLVKPSETLSLTCTVSGGSISNSYFSWGWIRQPPGKGLEWIGSFYYGEKTYYSPSLKSRATISIDTSKSQFSLKLSSVTAADTAVYYCPRGPTMIRGVIDSWGQGTLVTVSS VL: EIVLTQSPATLSLSPGERATLSCRASQSVRSYLAWYQQKPGQAPRLLIYDASNRATGIPARFSGSGSGTDFTLTISSLEPEDFAVYYCQQRSNWPPTFGQGTKVEIK | 1.95 |
| H1.43 L1 XENP34499 (antibody, V domains shown) VH: QLQVQESGPGLVKPSETLSLTCTVSGGSISNSYFSWGWIRQPPGKGLEWIGTFYYGEKTYYNPSLKSRATISIDTSKSQFSLKLSSVTAADTAVYYCPRGPTMIRGVIDSWGQGTLVTVSS VL: EIVLTQSPATLSLSPGERATLSCRASQSVRSYLAWYQQKPGQAPRLLIYDASNRATGIPARFSGSGSGTDFTLTISSLEPEDFAVYYCQQRSNWPPTFGQGTKVEIK | 0.627 |
| H1.75 L1 XENP34531 (antibody, V domains shown) VH: QLQVQESGPGLVKPSETLSLTCTVSGGSISNSYFSWGWIRQPPGKGLEWIGSFYYGEKTYYNPSLKSRATISIDTSKSQFSLQLSSVTAADTAVYYCPRGPTMIRGVIDSWGQGTLVTVSS VL: EIVLTQSPATLSLSPGERATLSCRASQSVRSYLAWYQQKPGQAPRLLIYDASNRATGIPARFSGSGSGTDFTLTISSLEPEDFAVYYCQQRSNWPPTFGQGTKVEIK | 1.18 |
| H1.41 L1 XENP34497 (antibody, V domains shown) VH: QLQVQESGPGLVKPSETLSLTCTVSGGSISNSYFSWGWIRQPPGKGLEWIGEFYYGEKTYYNPSLKSRATISIDTSKSQFSLKLSSVTAADTAVYYCPRGPTMIRGVIDSWGQGTLVTVSS VL: EIVLTQSPATLSLSPGERATLSCRASQSVRSYLAWYQQKPGQAPRLLIYDASNRATGIPARFSGSGSGTDFTLTISSLEPEDFAVYYCQQRSNWPPTFGQGTKVEIK | 18.9 |
| H1.60 L1 XENP34516 (antibody, V domains shown) VH: QLQVQESGPGLVKPSETLSLTCTVSGGSISNSYFSWGWIRQPPGKGLEWIGSFYYGESTYYNPSLKSRATISIDTSKSQFSLKLSSVTAADTAVYYCPRGPTMIRGVIDSWGQGTLVTVSS VL: EIVLTQSPATLSLSPGERATLSCRASQSVRSYLAWYQQKPGQAPRLLIYDASNRATGIPARFSGSGSGTDFTLTISSLEPEDFAVYYCQQRSNWPPTFGQGTKVEIK | 3.86 |
| H1.58 L1 XENP34514 (antibody, V domains shown) VH: QLQVQESGPGLVKPSETLSLTCTVSGGSISNSYFSWGWIRQPPGKGLEWIGSFYYGEDTYYNPSLKSRATISIDTSKSQFSLKLSSVTAADTAVYYCPRGPTMIRGVIDSWGQGTLVTVSS VL: EIVLTQSPATLSLSPGERATLSCRASQSVRSYLAWYQQKPGQAPRLLIYDASNRATGIPARFSGSGSGTDFTLTISSLEPEDFAVYYCQQRSNWPPTFGQGTKVEIK | 2.49 |
| H1.47 L1 XENP34503 (antibody, V domains shown) VH: QLQVQESGPGLVKPSETLSLTCTVSGGSISNSYFSWGWIRQPPGKGLEWIGSVYYGEKTYYNPSLKSRATISIDTSKSQFSLKLSSVTAADTAVYYCPRGPTMIRGVIDSWGQGTLVTVSS VL: EIVLTQSPATLSLSPGERATLSCRASQSVRSYLAWYQQKPGQAPRLLIYDASNRATGIPARFSGSGSGTDFTLTISSLEPEDFAVYYCQQRSNWPPTFGQGTKVEIK | 0.677 |
| H1.55 L1 XENP34511 (antibody, V domains shown) VH: QLQVQESGPGLVKPSETLSLTCTVSGGSISNSYFSWGWIRQPPGKGLEWIGSFYYSEKTYYNPSLKSRATISIDTSKSQFSLKLSSVTAADTAVYYCPRGPTMIRGVIDSWGQGTLVTVSS VL: EIVLTQSPATLSLSPGERATLSCRASQSVRSYLAWYQQKPGQAPRLLIYDASNRATGIPARFSGSGSGTDFTLTISSLEPEDFAVYYCQQRSNWPPTFGQGTKVEIK | 0.348 |
